Measurements published in article PMC6300606.

Key:
[1] = target: TssG (EAEC, residues 64–366) (enteroaggregative Escherichia coli (EAEC)); experiment: cryo-EM structure; TssKSN–TssF–TssG complex co-expressed in E. coli and purified (Ni-NTA, Superose 6); 0.12 mg/ml in 20 mM Tris-HCl pH 7.8, 150 mM NaCl; single-particle cryoEM, 3.7 Å overall
[2] = target: TssKSN (shoulder and neck domains of EAEC TssK, residues 1–315) (enteroaggregative Escherichia coli (EAEC)); experiment: as above

Substance	stoichiometry N (TssF per TssG) [1]	stoichiometry N [2]
TssF (EAEC, full length) (natural protein)	2	
TssKSN (shoulder and neck domains of EAEC TssK, residues 1–315) (domain or fragment)		3
